One assay concerns the target T1, AcPDO (Acidithiobacillus caldus, UniProt A0A2P9DTT9).
T1 construct: gene pdo
Put plainly: MALDI-TOF MS of tryptic peptides. Type of assay: binding. Conditions: covalent; cysteine-GSH adducts at C87, C224, C137 after […] min with […] GSSH, pH […].

In assay [1] the target is persulfide dioxygenase from Acidithiobacillus caldus C-SH12 (AcPDO) (Acidithiobacillus caldus C-SH12). Put plainly: native gel or EMSA; gel of urea-treated AcPDO (Supplementary Figure S6B), urea up to 8 M; 54-kDa dimer band.
Assay [2] has the same target. Put plainly: SDS-PAGE with Western blot; 10% acrylamide Tris-tricine SDS gel of purified AcPDO, detection with HRP-conjugated anti-Strep-tag antibody. (A western blot detects proteins with antibodies after separation by electrophoresis.)
Assay [3] has the same target. Put plainly: SEC; gel permeation chromatography, Superose 6 10/300 on an Äkta system, freshly prepared AcPDO (0.5 mg protein); standards cytochrome c, conalbumin, aldolase, catalase.
The target is the same in assay [4]. Nature of the assay: SEC; gel permeation chromatography, Superose 6 HR 10/30, previously frozen AcPDO, 2 M guanidinium chloride in 150 mM Tris/HCl pH 8, after 1 h at 25°C, 0.5 ml/min; tetramer to dimers. In general terms: Size exclusion chromatography separates by hydrodynamic size, large species first.

The record followed here is publication PMC6060420, “Persulfide Dioxygenase From Acidithiobacillus caldus: Variable Roles of Cysteine Residues and Hydrogen Bond Networks of the Active Site” (Frontiers in Microbiology, 2018).

The stoichiometry N is a count of units in the complex or per binding partner.

T1 sequence (A0A2P9DTT9 1-235 limits assumed): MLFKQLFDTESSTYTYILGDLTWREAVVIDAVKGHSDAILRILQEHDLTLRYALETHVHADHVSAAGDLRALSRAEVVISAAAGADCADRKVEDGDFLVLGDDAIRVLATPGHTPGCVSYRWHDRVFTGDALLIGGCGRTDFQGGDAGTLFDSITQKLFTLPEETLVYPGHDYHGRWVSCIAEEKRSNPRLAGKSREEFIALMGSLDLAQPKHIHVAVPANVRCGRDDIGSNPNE

On to `N[C@@H](CCC(=O)N[C@@H](CSS)C(=O)NCC(=O)O)C(=O)O` [GSSH], for which, on AcPDO, the “MALDI-TOF MS of tryptic peptides” value is listed as “cysteine-GSH adducts were identified after the enzyme was incubated with GSSH”.

“persulfide dioxygenase from Acidithiobacillus caldus C-SH12 (AcPDO) (enzyme)”: the stoichiometry N in assay [1] was 2; in assay [2] it was 2; in assay [3] it was 3.7 subunits; in assay [4], 2.
